In patent US20040077054A1:

Key:
[1] = target: 16K hPRL binding sites in human placental membrane fractions (human); assay: Scatchard analysis, radioligand binding, second trimester human placental membranes
[2] = target: 16K hPRL binding sites in human placental membrane fractions (human); assay: Scatchard analysis, radioligand binding, first trimester human placental membranes
[3] = target: 16K hPRL binding sites in human placental membrane fractions (human); assay: Scatchard analysis, radioligand binding, third trimester human placental membranes
[4] = target: 16K hPRL binding sites in human placental membrane fractions (human); assay: specific binding of 100 pM 125I-16K rPRL (counts displaced by 400 nM 16K hPRL), third trimester placental membranes, n=3
[5] = target: 16K hPRL binding sites in human placental membrane fractions (human); assay: specific binding of 100 pM 125I-16K rPRL (counts displaced by 400 nM 16K hPRL), second trimester placental membranes, n=3
[6] = target: 16K hPRL binding sites in human placental membrane fractions (human); assay: specific binding of 100 pM 125I-16K rPRL (counts displaced by 400 nM 16K hPRL), first trimester placental membranes, n=4

Substance	maximal binding (Bmax) (fmol/µg protein) [1]	maximal binding (Bmax) (fmol/µg protein) [2]	maximal binding (Bmax) (fmol/µg protein) [3]	maximal specific binding (cpm/5 µg protein) [4]	maximal specific binding (cpm/5 µg protein) [5]	maximal specific binding (cpm/5 µg protein) [6]
16K N-terminal human prolactin (ligand)	630	3.19	775	–	–	–
125I-16K rPRL (rat 16K prolactin, radioiodinated) (from UniProt P01237 30-174) (ligand)	–	–	–	4040	1780	357
